Test results as given in patent US20210292396A1.

What was measured:
Experiment in all cases: cell-based or functional assay
[1] = molecular target: Env of HIV isolate T278-50 (clade AG) (HIV)
[2] = molecular target: Env of HIV isolate UG037.8 (clade A) (HIV)
[3] = molecular target: HIV Env of isolate DJ263.8 (HIV)
[4] = molecular target: HIV Env of isolate TV1.29 (HIV)
[5] = molecular target: Env of HIV isolate M02138 (clade AE) (HIV)
[6] = molecular target: Env of HIV isolate KER2018.11 (clade A) (HIV)
[7] = molecular target: HIV Env of isolate TRO.11 (HIV)
[8] = molecular target: Env of HIV isolate T251-18 (clade AG) (HIV)
[9] = molecular target: HIV Env of isolate R2184.c4 (HIV)
[10] = molecular target: Env of HIV isolate ZA012.29 (clade C) (HIV)
[11] = molecular target: Env of HIV isolate Q769.h5 (clade A) (HIV)
[12] = molecular target: HIV Env of isolate 3988.25 (HIV)
[13] = molecular target: Env of HIV isolate C4118.09 (clade AE) (HIV)
[14] = molecular target: Env of HIV isolate KNH1209.18 (clade A) (HIV)
[15] = molecular target: Env of HIV isolate ZM176.66 (clade C) (HIV)
[16] = molecular target: Env of HIV isolate 235-47 (clade AG) (HIV)
[17] = molecular target: HIV Env of isolate CAAN.A2 (HIV)
[18] = molecular target: Env of HIV isolate CNE20 (clade BC) (HIV)
[19] = molecular target: Env of HIV isolate ZM249.1 (clade C) (HIV)
[20] = molecular target: HIV Env of isolate ZM214.15 (HIV)
[21] = molecular target: HIV Env of isolate 3365.v2.c20 (HIV)
[22] = molecular target: HIV Env of isolate BJOX028000.10.3 (HIV)
[23] = molecular target: HIV Env of isolate 263-8 (HIV)
[24] = molecular target: HIV Env of isolate BaL.26 (HIV)
[25] = molecular target: Env of HIV isolate 3326.v4.c3 (clade CD) (HIV)
[26] = molecular target: Env of HIV isolate BL01.DG (clade B) (HIV)
[27] = molecular target: HIV Env of isolate CNE15 (HIV)
[28] = molecular target: HIV Env of isolate BJOX025000.01.1 (HIV)
[29] = molecular target: Env of HIV isolate CAAN.A2 (clade B) (HIV)
[30] = molecular target: HIV Env of isolate CNE57 (HIV)
[31] = molecular target: Env of HIV isolate BR07.DG (clade B) (HIV)
[32] = molecular target: HIV Env of isolate 6631.v3.c10 (HIV)
[33] = molecular target: Env of HIV isolate CH070.1 (clade BC) (HIV)
[34] = molecular target: HIV Env of isolate CH117.4 (HIV)
[35] = molecular target: Env of HIV isolate JRFL.JB (clade B) (HIV)
[36] = molecular target: Env of HIV isolate QH209.14M.A2 (clade A) (HIV)
[37] = molecular target: HIV Env of isolate SO18.18 (HIV)
[38] = molecular target: HIV Env of isolate C4118.09 (HIV)
[39] = molecular target: Env of HIV isolate CNE12 (clade B) (HIV)
[40] = molecular target: HIV Env of isolate T253-11 (HIV)
[41] = molecular target: HIV Env of isolate 398-F1.F6.20 (HIV)
[42] = molecular target: Env of HIV isolate 6631.v3.c10 (clade C) (HIV)
[43] = molecular target: HIV Env of isolate CNE10 (HIV)
[44] = molecular target: Env of HIV isolate BB539.2B13 (clade A) (HIV)
[45] = molecular target: Env of HIV isolate Q168.a2 (clade AD) (HIV)
[46] = molecular target: Env of HIV isolate Q842.d12 (clade A) (HIV)
[47] = molecular target: Env of HIV isolate TZA125.17 (clade C) (HIV)
[48] = molecular target: HIV Env of isolate 271-11 (HIV)
[49] = molecular target: Env of HIV isolate 0921.v2.c14 (clade C) (HIV)
[50] = molecular target: Env of HIV isolate REJO.67 (clade B) (HIV)
[51] = molecular target: HIV Env of isolate HO86.8 (HIV)
[52] = molecular target: HIV Env of isolate TH976.17 (HIV)
[53] = molecular target: HIV Env of isolate 6535.3 (HIV)

PGT121 (antibody) was tested, and the IC50, pseudovirus neutralization [1] was over 50 µg/mL, the IC50, pseudovirus neutralization [2] was 0.092 µg/mL and the IC80 [3] was 0.202 µg/mL. The IC80, pseudovirus neutralization [4] was 0.438 µg/mL, the IC50, pseudovirus neutralization [5] was over 50 µg/mL and the IC50, pseudovirus neutralization [6] was over 50 µg/mL. For the same substance, the IC80 [7] was 0.0583 µg/mL, the IC50, pseudovirus neutralization [8] was 3.05 µg/mL and the IC80 [9] was over 50 µg/mL. The IC50, pseudovirus neutralization [10] was 0.0117 µg/mL, the IC50, pseudovirus neutralization [11] was over 50 µg/mL and the IC80 [12] was 0.0287 µg/mL. For the same substance, the IC50, pseudovirus neutralization [13] was over 50 µg/mL, the IC50, pseudovirus neutralization [14] was 0.0117 µg/mL and the IC50, pseudovirus neutralization [15] was 4.1 µg/mL. It also gave an IC50, pseudovirus neutralization [16] of 0.132 µg/mL, an IC80 [17] of 0.0503 µg/mL and an IC50, pseudovirus neutralization [18] of 0.005 µg/mL. For the same substance, the IC50, pseudovirus neutralization [19] was over 50 µg/mL, the IC80, pseudovirus neutralization [20] was 1.57 µg/mL and the IC80 [21] was 0.639 µg/mL. It also gave an IC80 [22] of over 50 µg/mL, an IC80 [23] of 2.5 µg/mL and an IC80 [24] of 0.06 µg/mL. It also gave an IC50, pseudovirus neutralization [25] of over 50 µg/mL, an IC50, pseudovirus neutralization [26] of 19.6 µg/mL and an IC80, pseudovirus neutralization [27] of over 50 µg/mL. It also gave an IC80 [28] of over 50 µg/mL, an IC50, pseudovirus neutralization [29] of 0.0193 µg/mL and an IC80 [30] of 0.0777 µg/mL. It also gave an IC50, pseudovirus neutralization [31] of 0.132 µg/mL, an IC80, pseudovirus neutralization [32] of over 50 µg/mL and an IC50, pseudovirus neutralization [33] of 0.0137 µg/mL. It also gave an IC80, pseudovirus neutralization [34] of over 50 µg/mL, an IC50, pseudovirus neutralization [35] of 0.0397 µg/mL and an IC50, pseudovirus neutralization [36] of over 50 µg/mL. For the same substance, the IC80, pseudovirus neutralization [37] was 0.0167 µg/mL, the IC80 [38] was over 50 µg/mL and the IC50, pseudovirus neutralization [39] was 0.0153 µg/mL. For the same substance, the IC80 [40] was over 50 µg/mL, the IC80 [41] was 0.0527 µg/mL and the IC50, pseudovirus neutralization [42] was over 50 µg/mL. For the same substance, the IC80 [43] was 0.048 µg/mL, the IC50, pseudovirus neutralization [44] was over 50 µg/mL and the IC50, pseudovirus neutralization [45] was over 50 µg/mL. The IC50, pseudovirus neutralization [46] was 0.0217 µg/mL, the IC50, pseudovirus neutralization [47] was 1.45 µg/mL and the IC80 [48] was over 50 µg/mL. It also gave an IC50, pseudovirus neutralization [49] of over 50 µg/mL, an IC50, pseudovirus neutralization [50] of 1.96 µg/mL and an IC80 [51] of over 50 µg/mL. For the same substance, the IC80 [52] was over 50 µg/mL and the IC80 [53] was 0.0217 µg/mL.
